T1: human MCAM domain 1 (amino acids 19-129), Fc-tagged (human, UniProt P43121 19-129)
T1 construct: also called MCAM Fc domain 1
T1 sequence: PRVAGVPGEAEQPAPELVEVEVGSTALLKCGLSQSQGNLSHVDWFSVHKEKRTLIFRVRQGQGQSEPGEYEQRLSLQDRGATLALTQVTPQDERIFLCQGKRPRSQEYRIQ

T2: human MCAM domain 2 (amino acids 139-242), Fc-tagged (human, UniProt P43121 139-242)
T2 sequence: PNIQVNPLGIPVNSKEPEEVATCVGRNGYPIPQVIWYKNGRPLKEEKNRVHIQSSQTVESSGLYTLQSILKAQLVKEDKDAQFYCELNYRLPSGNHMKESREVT

T3: Recombinant human Fc-tagged MCAM IgG1-2A (human MCAM domains 1 and 2, amino acids 19-242) (human, UniProt P43121 19-242)
T3 construct: also called human MCAM IgG1-2A; MCAM Fc domains 1 and 2; not shown: human Fc tag
T3 sequence: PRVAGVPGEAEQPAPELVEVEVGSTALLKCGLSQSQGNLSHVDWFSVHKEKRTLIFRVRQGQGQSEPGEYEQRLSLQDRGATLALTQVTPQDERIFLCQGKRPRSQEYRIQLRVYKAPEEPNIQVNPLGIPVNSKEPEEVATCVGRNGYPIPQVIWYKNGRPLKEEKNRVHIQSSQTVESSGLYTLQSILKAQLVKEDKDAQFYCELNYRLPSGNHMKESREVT

T4: human MCAM domain 3 (amino acids 244-321), Fc-tagged (human, UniProt P43121 244-321)
T4 construct: also called domain 3 of the human MCAM protein
T4 sequence: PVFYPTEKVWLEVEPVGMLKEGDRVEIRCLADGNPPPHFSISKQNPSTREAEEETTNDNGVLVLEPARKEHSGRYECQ

T5: human MCAM (melanoma cell adhesion molecule) expressed on transfected CHO cells (human, UniProt P43121 24-646)
T5 construct: also called hMCAM; CD146
T5 chain: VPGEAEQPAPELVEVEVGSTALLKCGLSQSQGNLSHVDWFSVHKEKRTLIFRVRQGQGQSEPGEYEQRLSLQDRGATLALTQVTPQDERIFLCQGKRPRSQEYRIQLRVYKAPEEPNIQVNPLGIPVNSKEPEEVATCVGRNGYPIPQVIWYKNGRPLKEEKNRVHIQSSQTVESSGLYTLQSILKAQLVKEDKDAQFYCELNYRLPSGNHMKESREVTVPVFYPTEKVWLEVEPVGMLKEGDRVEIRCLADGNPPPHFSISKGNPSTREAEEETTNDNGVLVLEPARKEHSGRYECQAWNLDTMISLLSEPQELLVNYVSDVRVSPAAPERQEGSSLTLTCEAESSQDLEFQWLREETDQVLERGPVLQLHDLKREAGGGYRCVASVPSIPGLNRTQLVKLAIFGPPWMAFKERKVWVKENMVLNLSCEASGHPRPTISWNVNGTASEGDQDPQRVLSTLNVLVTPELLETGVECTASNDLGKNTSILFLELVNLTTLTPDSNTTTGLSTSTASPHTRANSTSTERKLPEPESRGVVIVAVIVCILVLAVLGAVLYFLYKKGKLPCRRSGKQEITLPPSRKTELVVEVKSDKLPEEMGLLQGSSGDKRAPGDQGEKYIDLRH

T6: recombinant hMCAM-His (human, UniProt P43121 24-559)
T6 construct: not shown: His tag
T6 chain: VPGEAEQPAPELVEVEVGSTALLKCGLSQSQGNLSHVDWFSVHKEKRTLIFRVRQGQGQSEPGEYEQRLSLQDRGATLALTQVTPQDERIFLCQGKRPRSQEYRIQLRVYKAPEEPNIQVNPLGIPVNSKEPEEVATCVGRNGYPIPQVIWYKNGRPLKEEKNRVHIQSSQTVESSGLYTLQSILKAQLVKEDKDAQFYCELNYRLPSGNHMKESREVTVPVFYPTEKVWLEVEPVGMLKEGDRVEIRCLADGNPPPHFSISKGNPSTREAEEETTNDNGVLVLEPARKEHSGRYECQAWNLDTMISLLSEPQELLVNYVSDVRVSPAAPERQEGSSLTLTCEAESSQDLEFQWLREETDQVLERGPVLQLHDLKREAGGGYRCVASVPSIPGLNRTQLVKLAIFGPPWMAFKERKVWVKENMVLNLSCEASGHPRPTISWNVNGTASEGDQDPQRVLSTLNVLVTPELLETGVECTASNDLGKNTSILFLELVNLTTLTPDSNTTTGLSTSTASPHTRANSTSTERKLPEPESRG


Assays:
[1] = target: T1, human MCAM domain 1 (amino acids …); assay: ForteBio domain mapping as in Example 8
[2] = target: T2, human MCAM domain 2 (amino acids …); assay: ForteBio domain mapping as in Example 8
[3] = target: T3, Recombinant human Fc-tagged MCAM …; assay: ForteBio domain mapping as in Example 8
[4] = target: T4, human MCAM domain 3 (amino acids …); assay: ForteBio domain mapping as in Example 8
[5] = target: T5, human MCAM (melanoma cell adhesion …); assay: flow cytometry, human MCAM CHO cells preincubated with antibody, competitor recombinant human laminin 411 at 20 ug/ml
Protocol: The 87 independent mouse fusion clones and 26 independent rat fusion clones described in Example 10 above as being capable of (i) binding to human MCAM, and (ii) blocking the interaction between human MCAM and the α-4 chain of laminin were further characterized as follows. First, IC50 quantitation for the ability of the monoclonal antibody to block the binding of human MCAM to the α-4 chain of laminin was determined as follows. CHO cells expressing human MCAM were incubated with an anti-human MCAM antibody (at various concentrations) for 30 minutes at 4 degrees Celsius. […] Unbound laminin was then washed away, and the laminin bound to the surface of the cells was detected with fluorescently labeled anti-laminin antibodies. After washing, the amount of laminin bound to the surface was detected by flow cytometry, and IC50s were calculated based on the mean fluorescent intensity.
These six anti-MCAM monoclonal antibody clones are herein referred to as (i) the mouse anti-human MCAM monoclonal clones 1174.1.3, 1414.1.2, 1415.1.1, and 1749.1.3, and (ii) the rat anti-human MCAM monoclonal antibody clones 2120.4.19 and 2107.4.10. […] As such, each of these specific monoclonal antibodies was very capable of binding to human MCAM and inhibiting the interaction of cell-expressed human MCAM with its α-4 laminin binding ligand.

[6] = target: T6, recombinant hMCAM-His; assay: summary of ForteBio and competitive ELISA on hMCAM-His; vs rodent 1749
Protocol: ELISA plates were coated with recombinant hMCAM-His, and blocked with casein buffer to prevent non-specific binding. Biotinylated rodent or chimeric antibody was added at a subsaturating concentration, in the presence or absence of 3× increasing concentrations of unlabeled competitor (humanized antibody, rodent, or chimeric). After washing to remove unbound antibody, streptavidin HRP was added to allow detection of the biotinylated antibody. The ELISA was developed with TMB substrate and the OD450 was measured. The IC50 of the unlabeled competitor was determined using the GraphPad Prism5 software.
(§1) The affinities were measured using the ForteBio Octet Red. Anti-human Fc sensors were used to capture the humanized antibodies, and several concentrations of hMCAMHis analyte were used to determine the affinity using a 1:1 fitting model.

[7] = target: T6, recombinant hMCAM-His; assay: ForteBio Octet Red, hMCAM-His analyte; Forte column 1; vs rodent 1749
Protocol: as §1

[8] = target: T5, human MCAM (melanoma cell adhesion …); assay: laminin/FACS on hMCAM CHO cells, competitor laminin 411; Expt#1; vs rodent 1749
Protocol: (§2) Following incubation for 30-45 minutes, the cells were washed and anti-laminin conjugated to AF650 (NovusBio) was added to detect the bound laminin. The cells were run on a flow cytometer to measure the laminin binding signal.

[9] = target: T5, human MCAM (melanoma cell adhesion …); assay: laminin/FACS on hMCAM CHO cells, competitor laminin 411; Expt#2; vs rodent 1749
Protocol: as §2

[10] = target: T5, human MCAM (melanoma cell adhesion …); assay: summary of laminin blocking assay on hMCAM CHO cells, competitor laminin 411; vs rodent 1749
Protocol: as §2

[11] = target: T6, recombinant hMCAM-His; assay: competitive ELISA on hMCAM-His, competitor biotinylated rodent or chimeric 1749; vs rodent 1749

Row | Binder | binding result [1] | binding result [2] | binding result [3] | binding result [4] | IC50 [5] [µg/mL] | fold reduction in affinity compared to the rodent [6] [fold] | fold over rodent (Forte affinity) [7] [fold] | fold over rodent (blocking, laminin/FACS) [8] [fold] | fold over rodent (blocking, laminin/FACS) [9] [fold] | fold reduction in potency compared to the rodent [10] [fold] | fold over rodent (competitive ELISA) [11] [fold]
1 | mouse anti-human MCAM monoclonal antibody clone 1174.1.3 (antibody, V domains shown, mouse hybridoma antibody) VH: QIQLVQSGPELKKPGETVKISCKASGYTFTNYGMNWVKQAPGKGLKWMGWINTYTGEPTYADDFKGRFALSLETSASTAYLQINNLKNEDMATYFCARYRYNKYERAMDYWGQGTSVTVSS VL: DIVLTQSPASLAVSLGQRATISCRASKSVSTSGYSYMYWYQQKPGQPPKLLIYLASNLESGVPARFSGSGSGTDFTLNIHPVEEEDAATYYCQHSRELPFTFGSGTKLEIK | no binding | no binding | no binding | binds | 0.469 |  |  |  |  |  | 
2 | h1749VH1 + h1749VL2 (antibody, human IgG1, V domains shown) VH: EVQLVESGGGLVQPGGSLRLSCAASGFTFSSYIMSWVRQAPGKGLEWVATISSGGSSTYYPDSVKGRFTISRDNAKNSLYLQMNSLRAEDTAVYYCTRDDDYDVKVFAYWGQGTMVTVSS VL: DIVMTQSPDSLAVSLGERATINCKSSRSLLNSRIRKNYLAWYQQKPGQPPKLLIYWASTRESGVPDRFTGSGSGTDFTLTISSLQAEDVAVYYCKQSYNLLTFGQGTKVEIK |  |  |  |  |  | < 2 | 2.5 | 1.1 | 1.2 | < 2 | 1
3 | h1749VH2 + h1749VL1 (antibody, human IgG1, V domains shown, also called h1749VH2VL1) VH: EVQLVESGGGLVQPGGSLRLSCAASGFTFSSYIMSWVRQAPGKRLEWVATISSGGSSTYYPDSVKGRFTISRDNAKNSLYLQMNSLRAEDTAVYYCTRDDDYDVKVFAYWGQGTMVTVSS VL: DIVMTQSPDSLAVSLGERATINCKSSRSLLNSRIRKNYLAWYQQKPGQPPKLLIYWASTRESGVPDRFSGSGSGTDFTLTISSLQAEDVAVYYCKQSYNLLTFGQGTKVEIK |  |  |  |  |  | < 2 | 1.2 | 1.5 | 1.8 | < 2 | 1

The next lines start with the values.

Row | binding result [1] | binding result [2] | binding result [3] | binding result [4] | IC50 [5] [µg/mL] | fold reduction in affinity compared to the rodent [6] [fold] | fold over rodent (Forte affinity) [7] [fold] | fold over rodent (blocking, laminin/FACS) [8] [fold] | fold over rodent (blocking, laminin/FACS) [9] [fold] | fold reduction in potency compared to the rodent [10] [fold] | fold over rodent (competitive ELISA) [11] [fold] | Binder
4 | no binding | no binding | no binding | binds | 0.307 |  |  |  |  |  |  | mouse anti-human MCAM monoclonal antibody clone 1415.1.1 (antibody, V domains shown, mouse hybridoma antibody) VH: QVQLQQPGAELVQPGAPVKLSCKASGYIFTSYWMNWVKQRPGRGLEWIGRIDPSDSKIHYNQKFKDKATLTVDRSSSTAYIQLGSLTSEDSAVYYCAKEGGLRRGDYAMDYWGQGTSVTVSS VL: DIVMTQSPATLSVTPGDRVSLSCRASQSISDYLHWYQQKSHESPRLLIKYASQSISGIPSRFSGSGSGSDFTLSINSVEPEDVGVYYCQNGHNFPRTFGGGTKLEIK
5 | no binding | no binding | no binding | binds | 0.431 |  |  |  |  |  |  | mouse anti-human MCAM monoclonal antibody clone 1414.1.2 (antibody, V domains shown, mouse hybridoma antibody) VH: EIQLQQTGPELVKPGASVKISCKASGYSFTDYIMLWVKQSHGKSLEWIGNINPYSGSSGYNLKFKGKATLTVDKSSSTAYMQLNSLTSEDSAVYYCARGKDFAMDYWGQGTSVTVSS VL: DIVMSQSPSSLAVSAGEKVTMSCKSSQSLLNSSTRKNFLAWYQQKPGQSPKLLIYWASTRESGVPDRFTGSGSGTDFTLTISSVQAEDLAVYYCKQSYNRYTFGGGTKLEIK
